From publication PMC4574524 (Journal of immunology (Baltimore, Md. : 1950), 2015)

Target: PFD1235w DBLβ3_D4, wild type (P. falciparum 3D7)
Assay: SPR

B1: ICAM-1_D1 (domain or fragment)
chain: QTSVSPSKVILPRGGSVLVTCSTSCDQPKLLGIETPLPKKELLLPGNNRKVYELSNVQEDSQPMCYSNCPDGQSTAKTFLTVYWT
Kd: 2.34 nM | koff: 0.00337 s⁻¹
